Two molecules from patent US20240093191A1, “COMPOSITIONS AND METHODS FOR TREATING DISEASE ASSOCIATED WITH DUX4 OVEREXPRESSION” (RESEARCH INSTITUTE AT NATIONWIDE CHILDREN'S HOSPITAL, priority 2021, published 2024) can be followed below.

What all share (format): cell-based, human
The subject of data set [1] is mir-675-5p. The data set can be described thus: Small-transcript northern blot of mir-675 processing in HEK293 cells. To be noted: HEK293; anti-mir-675-5p biotinylated probe. An excerpt:
Small-Transcript Northern Blots. […] (SEQ ID NO: 148)).

The subject of data set [2] is mir-675-5p. The data set can be described thus: ddPCR of all mature mir-675-5p sequences (TaqMan Advanced miRNA cDNA synthesis) in HEK293 cells. The protocol: Digital Droplet PCR (ddPCR). For mir-675 and mi405 constructs, RNA extraction was carried out as described for QPCR above. For cDNA synthesis, the TaqMan advanced cDNA synthesis kit (Thermo Fisher) was used and cDNA was prepared by following manufacturer's instructions. ddPCR was carried out using 1× ddPCR Supermix for probes (No dUTP) (Bio-Rad), 1× commercially available mir-675 advanced TaqMan probe, or a custom made mi405 advanced TaqMan probe (ThermoFisher) and 50 ng of cDNA. For DUX4 cDNA synthesis, the High-Capacity cDNA Reverse Transcription Kit (Applied Biosystems) was used according to manufacturer's instructions. Within the same cDNA reaction, 1×RT random hexamer primers and 25 pmoles of the Oligo(dT) primer were used to generate cDNA for DUX4 and DUX4-responsive biomarkers and for mouse Rpl13A, used as a reference gene. To quantify DUX4, the ddPCR reaction mixture (20 μL) contained 1× ddPCR Evagreen Supermix (Bio-Rad), 1 μM of forward and reverse DUX4 primers (Sharma et al., J Genet Syndr Gene Ther 2016 August; 7(4):303. doi: 10.4172/2157-7412.1000303. Epub 2016 Aug. 8), and 50 ng of cDNA. To quantify Rpl13A and DUX4-responsive biomarkers (Trim36 and Wfdc3), the 1× ddPCR Supermix for probes (No dUTP) and TaqMan specific probes were used for each of the genes. Droplets were generated using the Automatic Droplet generator QX200 AutoDG (Bio-Rad), the reactions were amplified in a C1000 Touch™ Thermal Cycler with 96-Deep Well Reaction Module (Bio-Rad). Cycling conditions were set up following the QX200 ddPCR Evagreen Supermix protocol. All assays are compatible with an annealing temperature of 58° C. Droplets were then read using the QX200 droplet reader (Bio-Rad). Finally, data were analyzed using the QuantaSoft analysis software (Bio-Rad). For quantification, each reaction of 20 μL was estimated to give at least 10,000 acceptable droplets.
In order to quantify the level of all these mature sequences, the TaqMan advanced miRNA cDNA synthesis method that uses universal reverse transcription (RT) chemistry to synthesize cDNA templates that can be quantified using the TaqMan Advanced miRNA probes was used. In this method, most of the processed mature miRNA sequences were quantified.
For orientation: Real-time PCR tracks product formation cycle by cycle.

Another data set has as its system DUX4 protein. Kind of data set: Western blot of V5-tagged DUX4 protein in co-transfected HEK293 cells. To be noted: CMV.DUX4-FL/CMV.eGFP, HEK293, molar ratio 1 to 3, eGFP normalizer, relative to U6-milacZ, N = 3-8. As for the experimental part:
Western Blots. […] 50 mM Tris (pH 7.5-8.0), 150 mM NaCl, 0.1% (v/v) SDS, 0.5% (v/v) deoxycholate, 1% (v/v) triton X-100 (Fisher Scientific) and 1 tablet of protease inhibitor (ThermoFisher Scientific) per 10 mL of buffer. The total protein extract was quantified using the DC Protein Assay (Bio-Rad). Twenty microgram samples were separated on 12% SDS-PAGE, transferred to nitrocellulose membrane, using the wet transfer system, and incubated with the following antibodies: mouse monoclonal antibody to V5 (horseradish peroxidase [HRP]-coupled) [1:5,000 in 5% milk TBST buffer (150 mM NaCl, 50 mM Tris-HCl pH 7.4 and 0.1% Tween 20 (Fisher Scientific)), R961-25; Invitrogen); rabbit polyclonal eGFP antibody (1:50,000 in 3% BSA PBS, ab290; Abcam); mouse monoclonal β-actin antibodies (1:60,000; Sigma, St Louis, MO); overnight at 4° C. When using the eGFP antibody, membranes were blocked 30 mins with 3% BSA PBS prior to blotting. eGFP-probed blots were washed five times, 5 min each with 0.5% Tween 20 (Fisher Scientific) in TBST buffer, and then incubated with HRP-coupled goat anti-rabbit secondary antibody (1:250,000 in 3% BSA PBS, 115-035-144; Jackson ImmunoResearch) for 2 hours at room temperature. V5-probed blots were washed five times, 5 min each with 0.1% Tween 20 in TBST buffer. Following washes, blots were developed using Immobilon Western HRP substrate (Millipore) and exposed to film. DUX4.V5, and eGFP quantification was assessed using ImageJ.
A general note: In western blotting, separated proteins are transferred to a membrane and probed.

The test system of data set [3] is mir-675-5p. The data set can be described thus: TaqMan QRT-PCR of mature mir-675-5p from transfected constructs in HEK293 cells. To be noted: HEK293, 24 h post-transfection; for mir-675-5p levels compared to U6.mir-675: 23 mer mature mir-675-5p. The text has this: RNA Extraction. RNA from HEK293 cells was extracted for Northern blot assay and QPCR. The miRVANA miRNA isolation kit (ThermoFisher Scientific) was used according to manufacturer's directions to extract total RNA encompassing small RNAs, such as miRNAs. To extract RNA from C57BL/6 skeletal muscles, cryopreserved muscles were crushed under suboptimal temperatures using liquid nitrogen and using mortar and pestle. Crushed muscles were then lysed using […] of miRVANA miRNA isolation kit lysis buffer, a TissueLyser and 1.0 mm zirconia beads (Biospec). Muscle was homogenized at 30 Hz for 30 sec with 10 sec rest. This was repeated 3 times.
TaqMan Gene Expression Assay. QRT-PCR was carried out to quantify the expression of pri-mir-675, mir-675-5p and mi405 using TaqMan probes (ThermoFisher Scientific). Experiments were started by eliminating genomic DNA from the RNA preparations, and then cDNA was generated using the High-Capacity cDNA Reverse Transcription Kit (Applied Biosystems) following manufacturer's instructions. Within the same cDNA reaction, 1×RT random hexamer primers were used to generate the cDNA for RPL13A, used as a reference gene, and for pri-mir-675. To generate the cDNA for mir-675, the RT mir-675 reverse primer provided by ThermoFisher Scientific was used. For mi405, the mi405 qPCR protocol was done as it was previously described [Wallace et al., Mol. Ther. Methods Clin. Dev. 8: 121-30 (2018)]. To quantify mir-675 and mi405 levels, RNA was extracted using the total RNA protocol for the mirVana miRNA Isolation Kit (Ambion) from HEK293 cells. cDNA was generated using the High-Capacity cDNA Reverse Transcription Kit (Applied Biosystems) using a mix of random hexamer primers and specific reverse primer for pri-mir-675 and mir-675-5p. For mi405, 200 nM of the stem-loop forming primer (5′-[…]-3′) (SEQ ID NO: 144) was also used for the RT step. A custom TaqMan assay (Applied Biosystems) including 1.5 μM of Forward primer (5′-[…]-3′) (SEQ ID NO: 145), 0.7 μM of Reverse primer (5′-GTGCAGGGTCCGAGGT-3′) (SEQ ID NO: 146), and 0.2 μM of mi405 probe (5′-6FAM-ATACGACGTCCAGGAT-3′) (SEQ ID NO: 147) was then run using the CFX Connect Real Time system apparatus (Bio-Rad). RPL13A (Mm02526700_g1; Applied Biosystems) served as the reference gene. The TaqMan gene expression assay consisted of using the TaqMan Gene Expression Master mix and TaqMan probes purchased from ThermoFisher Scientific. 1× of probe was mixed with 1× of the TaqMan Gene Expression Master mix (ThermoFisher Scientific), and with 20 ng of cDNA. The mir-675- and mi405-specific primers and probes were designed to quantify only the mir-675-5p and mi405 mature sequence (see TaqMan Gene Expression Master mix protocol).

B1: U6.mir-675-2.1.1: mir-675 construct with modified 5' and 3' flanking sequences (nucleic acid)
DNA: TCTAGAGATCCGACGCCGCCATCTCTAGGCCCGCGCCGGCCCCCTCGCACAGACTTGTGGGAGAAGCTCGGCTACTCCCCTGCCCCGGTTAATTTGCATATAATATTTCCTAGTAACTATAGAGGCTTAATGTGCGATAAAAGACAGATAATCTGTTCTTTTTAATACTAGCTACATTTTACATGATAGGCTTGGATTTCTATAAGAGATACAAATACTAAATTATTATTTTAAAAAACAGCACAAAAGGAAACTCACCCTAACTGTAAAGTAATTGTGTGTTTTGAGACTATAAATATCCCTTGGAGAAAAGCCTTGTTTGCCCCAGGGTCTGGTGCGGAGAGGGCCCACAGTGGACTTGGTGACGCTGTATGCCCTCACCGCTCAGCCCCTGGGGATAACTCCTAATCACACTTTTTT
B1: in the data set with mir-675-5p [1], the “mature mir-675-5p bands on northern blot” value is listed as “detectable mir-675 mature sequences”. The “fold change of all mature mir-675-5p sequences compared to U6.mir-675” value in the data set with mir-675-5p [2] was determined as 213±51%. For the same molecule, the “Average inhibition efficiency (%) of DUX4 protein levels” value (“Average inhibition efficiency (%)” for short) in the data set on DUX4 protein was 83±3%. Besides, the “Average inhibition efficiency (%)” value in the data set on DUX4 protein (listed as U6-mir-675-2.1.1) is 83 ± 3 (N = 3) %. Further, in the data set with mir-675-5p [3], the “mir-675-5p levels compared to U6.mir-675” value is on record as 282±34% and the “ratio of mir-675-5p/pri-mir-675 compared to U6.mir-675” value was determined as 207±38%.

B2: U6.mir-675F2: U6 mir-675 construct with H1.mir-675-like flanks and cPPT/CTS sequence (nucleic acid)
DNA: TTTTAAAAGAAAAGGGGGGATTGGGGGGTACAGTGCAGGGGAAAGAATAGTAGACATAATAGCAACAGACATACAAACTAAAGAATTACAAAAACAAATTACAAAAATTCAAAATTTTTCTAGAGATCCGACGCCGCCATCTCTAGGCCCGCGCCGGCCCCCTCGCACAGACTTGTGGGAGAAGCTCGGCTACTCCCCTGCCCCGGTTAATTTGCATATAATATTTCCTAGTAACTATAGAGGCTTAATGTGCGATAAAAGACAGATAATCTGTTCTTTTTAATACTAGCTACATTTTACATGATAGGCTTGGATTTCTATAAGAGATACAAATACTAAATTATTATTTTAAAAAACAGCACAAAAGGAAACTCACCCTAACTGTAAAGTAATTGTGTGTTTTGAGACTATAAATATCCCTTGGAGAAAAGCCTTGTTTGCCCCAGGGTCTGGTGCGGAGAGGGCCCACAGTGGACTTGGTGACGCTGTATGCCCTCACCGCTCAGCCCCTGGGGAATTCTTCGATTCTGCTTTTTT
For B2, in the data set with mir-675-5p [1], the “mature mir-675-5p bands on northern blot” value was “detectable mir-675 mature sequences”. The “fold change of all mature mir-675-5p sequences compared to U6.mir-675” value with mir-675-5p [2] amounted to 181±34%. The “Average inhibition efficiency (%)” value in the data set with DUX4 protein is listed as 79 ± 6 (N = 3) %. Also, in the data set with mir-675-5p [3], the “mir-675-5p levels compared to U6.mir-675” value was determined as 882±108% and the “ratio of mir-675-5p/pri-mir-675 compared to U6.mir-675” value is listed as 918±169%.
